From PMC4549301 (2015) come the findings set out here.

B1: GST–HCF-1rep1, wild type (HCF-1 residues 867–1071) [human] / Recombinant human O-linked β-N-acetylglucosamine transferase (OGT), wild type [human] (parent complex)
chain 1: PAVTTLVVKGTTGVTTLGTVTGTVSTSLAGAGGHSTSASLATPITTLGTIATLSSQVINPTAITVSAAQTTLTAAGGLTTPTITMQPVSQPTQVTLITAPSGVEAQPVHDLPVSILASPTTEQPTATVTIADSGQGDVQPGTVTLVCSNPPCETHETGTTNTATTTVVANLGGHPQPTQVQFVCDRQEAAASLVTSTVGQQNGSV
chain 2: MASSVGNVADSTGLAELAHREYQAGDFEAAERHCMQLWRQEPDNTGVLLLLSSIHFQCRRLDRSAHFSTLAIKQNPLLAEAYSNLGNVYKERGQLQEAIEHYRHALRLKPDFIDGYINLAAALVAAGDMEGAVQAYVSALQYNPDLYCVRSDLGNLLKALGRLEEAKACYLKAIETQPNFAVAWSNLGCVFNAQGEIWLAIHHFEKAVTLDPNFLDAYINLGNVLKEARIFDRAVAAYLRALSLSPNHAVVHGNLACVYYEQGLIDLAIDTYRRAIELQPHFPDAYCNLANALKEKGSVAEAEDCYNTALRLCPTHADSLNNLANIKREQGNIEEAVRLYRKALEVFPEFAAAHSNLASVLQQQGKLQEALMHYKEAIRISPTFADAYSNMGNTLKEMQDVQGALQCYTRAIQINPAFADAHSNLASIHKDSGNIPEAIASYRTALKLKPDFPDAYCNLAHCLQIVCDWTDYDERMKKLVSIVADQLEKNRLPSVHPHHSMLYPLSHGFRKAIAERHGNLCLDKINVLHKPPYEHPKDLKLSDGRLRVGYVSSDFGNHPTSHLMQSIPGMHNPDKFEVFCYALSPDDGTNFRVKVMAEANHFIDLSQIPCNGKAADRIHQDGIHILVNMNGYTKGARNELFALRPAPIQAMWLGYPGTSGALFMDYIITDQETSPAEVAEQYSEKLAYMPHTFFIGDHANMFPHLKKKAVIDFKSNGHIYDNRIVLNGIDLKAFLDSLPDVKIVKMKCPDGGDNADSSNTALNMPVIPMNTIAEAVIEMINRGQIQITINGFSISNGLATTQINNKAATGEEVPRTIIVTTRSQYGLPEDAIVYCNFNQLYKIDPSTLQMWANILKRVPNSVLWLLRFPAVGEPNIQQYAQNMGLPQNRIIFSPVAPKEEHVRRGQLADVCLDTPLCNGHTTGMDVLWAGTPMVTMPGETLASRVAASQLTCLGCLELIAKNRQEYEDIAVKLGTDLEYLKKVRGKVWKQRISSPLFNTKQYTMELERLYLQMWEHYAAGNKPDHMIKPVEVTESA

Variants of B1 are the subject of the assay. The assay is described as follows: in vitro HCF-1rep1-OGT binding assay (OGT pull-down, quantified immunoblot); in the presence of UDP-GlcNAc; read off a plot. (In western blotting, separated proteins are transferred to a membrane and probed.)
As to chain 1 PAVTTLVVKGTTGVTTLGTVTGTVSTSLAGAGGHSTSASLATPITTLGTIATLSSQVINPTAITVSAAQTTLTAAGGLTTPTITMQPVSQPTQVTLITAPSGVEAQPVHDLPVSILASPTTEQPTATVTIADSGQGDVQPGTVTLVCSNPPCETHEAGTTNTATTTVVANLGGHPQPTQVQFVCDRQEAAASLVTSTVGQQNGSV [chain 1 T157A], the screen value is about -3 log2 fold change.
Under chain 1 PAVTTLVVKGTTGVTTLGTVTGTVSTSLAGAGGHSTSASLATPITTLGTIATLSSQVINPTAITVSAAQTTLTAAGGLTTPTITMQPVSQPTQVTLITAPSGVEAQPVHDLPVSILASPTTEQPTATVTIADSGQGDVQPGTVTLVCSNPPCEAHETGTTNTATTTVVANLGGHPQPTQVQFVCDRQEAAASLVTSTVGQQNGSV [chain 1 T154A] stands about 0.3 log2 fold change.
Under chain 1 PAVTTLVVKGTTGVTTLGTVTGTVSTSLAGAGGHSTSASLATPITTLGTIATLSSQVINPTAITVSAAQTTLTAAGGLTTPTITMQPVSQPTQVTLITAPSGVEAQPVHDLPVSILASPTTEQPTATVTIADSGQGDVQPGTVTLVCSNPPCETAETGTTNTATTTVVANLGGHPQPTQVQFVCDRQEAAASLVTSTVGQQNGSV [chain 1 H155A] stands about -0.5 log2 fold change.
For chain 1 PAVTTLVVKGTTGVTTLGTVTGTVSTSLAGAGGHSTSASLATPITTLGTIATLSSQVINPTAITVSAAQTTLTAAGGLTTPTITMQPVSQPTQVTLITAPSGVEAQPVHDLPVSILASPTTEQPTATVTIADSGQGDVQPGTVTLVCSNPACETHETGTTNTATTTVVANLGGHPQPTQVQFVCDRQEAAASLVTSTVGQQNGSV [chain 1 P151A], the screen value is about -0.7 log2 fold change.
Then chain 1 PAVTTLVVKGTTGVTTLGTVTGTVSTSLAGAGGHSTSASLATPITTLGTIATLSSQVINPTAITVSAAQTTLTAAGGLTTPTITMQPVSQPTQVTLITAPSGVEAQPVHDLPVSILASPTTEQPTATVTIADSGQGDVQPGTVTLVCSNPPAETHETGTTNTATTTVVANLGGHPQPTQVQFVCDRQEAAASLVTSTVGQQNGSV [chain 1 C152A], with about -0.55 log2 fold change.
On to chain 1 PAVTTLVVKGTTGVTTLGTVTGTVSTSLAGAGGHSTSASLATPITTLGTIATLSSQVINPTAITVSAAQTTLTAAGGLTTPTITMQPVSQPTQVTLITAPSGVEAQPVHDLPVSILASPTTEQPTATVTIADSGQGDVQPGTVTLVCSNPPCETHATGTTNTATTTVVANLGGHPQPTQVQFVCDRQEAAASLVTSTVGQQNGSV [chain 1 E156A], for which the screen value was about -1.1 log2 fold change.
Regarding chain 1 PAVTTLVVKGTTGVTTLGTVTGTVSTSLAGAGGHSTSASLATPITTLGTIATLSSQVINPTAITVSAAQTTLTAAGGLTTPTITMQPVSQPTQVTLITAPSGVEAQPVHDLPVSILASPTTEQPTATVTIADSGQGDVQPGTVTLVCSNAPCETHETGTTNTATTTVVANLGGHPQPTQVQFVCDRQEAAASLVTSTVGQQNGSV [chain 1 P150A], the screen value is about -1.7 log2 fold change.
